Source: patent publication US7067268
No end group written: not given here.

Assays:
[1] = target: these antibodies (P2L-1Ta, P2L-3Ta, P2L-2Ta and P2L-4Ta); assay: competitive EIA against HRP-labeled 19P2 ligand (12-25); P2L-1Ta, P2L-3Ta, P2L-2Ta, P2L-4Ta (FIG. 9)
[2] = target: P2L-2Ca; assay: competitive EIA: unlabeled antigen varied against HRP-labeled 19P2 ligand (17-31) on P2L-2C
[3] = target: P2L-3Ta; assay: competitive EIA: unlabeled antigen varied against HRP-labeled 19P2 ligand (12-25) on P2L-3Ta
[4] = target: P2L-1Ca; assay: competitive EIA: unlabeled antigen varied against HRP-labeled 19P2 ligand (17-31) on P2L-1C
[5] = target: P2L-1Ta; assay: competitive EIA: unlabeled antigen varied against HRP-labeled 19P2 ligand (12-25) on P2L-1Ta
[6] = target: P2L-2Ca; assay: competitive EIA on P2L-2C; ratio of the antigen concentrations giving (B/B0)=0.5
[7] = target: P2L-3Ta; assay: competitive EIA against HRP-labeled 19P2 ligand (12-25); sentence prints 'P2L-1Ta' but stands in the P2L-3Ta passage and cites FIG. 7(b)
[8] = target: P2L-3Ta; assay: competitive EIA against HRP-labeled 19P2 ligand (12-25); 'higher' as printed, though 25 nM against 4 nM points to lower
[9] = target: P2L-1Ta; assay: competitive EIA on P2L-1Ta; FIG. 7(a)

| Binder | IC50 [1] [nM] | IC50 [2] [nM] | IC50 [3] [nM] | IC50 [4] [nM] | IC50 [5] [nM] | antigen concentration detected, (B/B0)=0.9 [5] [nM] | fold of the reactivity against bovine 19P2 ligand (1-31) [6] [fold] | fold of the reactivity against rat 19P2 ligand (1-31) [6] [fold] | IC50 [7] [nM] | fold of the reactivity against human 19P2 ligand (1-31) [7] [fold] | fold of the reactivity against human 19P2 ligand (1-31) [8] [fold] | fold of the reactivity against human 19P2 ligand (1-31) [9] [fold] |
| --- | --- | --- | --- | --- | --- | --- | --- | --- | --- | --- | --- | --- |
| SRTHRHSMEIRTPDINPAWYASRGIRPVGRX (C-terminal amide) [Human 19P2 ligand (1-31)] | 3 to 50 | 1.5 | 4 | 3 | 4 | 0.1 | 33 | 130 |  |  |  |  |
| TPDINPAWYASRGIRPVGRF-NH2 [Human 19P2 ligand (12-31)] |  |  |  |  | 4 |  |  |  | 7 | 0.5 |  |  |
| SRAHQHSMETRTPDINPAWYTGRGIRPVGRF-NH2 [Rat 19P2 ligand (1-31)] |  | 200 |  |  | 1 |  |  |  | 25 |  | 6 | 4 |
| SRAHQHSMEIRTPDINPAWYAGRGIRPVGRF-NH2 [Bovine 19P2 ligand (1-31)] |  | 50 |  |  |  |  |  |  |  |  |  |  |
